Source: the supplement of paper PMC12667976
± gives the standard error.

B1: library; numbered along this chain (parent)
chain: MATDAALRRLLRLHRTEIAVAVDSAFPLLHALADHDVVPEDKFQETLHLKEKEGCPQAFHALLSWLLTQDSTAILDFWRVLFKDYNLERYGRLQPILDSFPKDVDLSQPRKGRKPPAVPKALVPPPRLPTKRKASEEARAAAPAALTPRGTASPGSQLKAKPPKKPESSAEQQRLPLGNGIQTMSASVQRAVAMSSGDVPGARGAVEGILIQQVFESGGSKKCIQVGGEFYTPSKFEDSGSGKNKARSSSGPKPLVRAKGAQGAAPGGGEARLGQQGSVPAPLALPSDPQLHQKNEDECAVCRDGGELICCDGCPRAFHLACLSPPLREIPSGTWRCSSCLQATVQEVQPRAEEPRPQEPPVETPLPPGLRSAGEEVRGPPGEPLAGMDTTLVYKHLPAPPSAAPLPGLDSSALHPLLCVGPEGQQNLAPGARCGVCGDGTDVLRCTHCAAAFHWRCHFPAGTSRPGTGLRCRSCSGDVTPAPVEGVLAPSPARLAPGPAKDDTASHEPALHRDDLESLLSEHTFDGILQWAIQSMARPAAPFPS

Variants of: B1
Assay: AIRE transcriptional activation functional score (insulin promoter-GFP; nonsense median 0, synonymous median 1) (normalised score); higher = higher AIRE activity (more reporter activation)
Conditions: with insulin promoter-GFP reporter in HEK293
In short: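 Using Bxb1 recombinase, codon-optimized NNN-codon libraries for three AIRE regions were inserted into Flp-In T-REx HEK293 landing-pad cells with an insulin core promoter-GFP reporter. After integrants (mCherry+, BFP−) were sorted at day 7 and expanded for 7 days, the top 10% GFP and unselected integrant populations underwent tile-sequencing. Functional scores are wild-type-subtracted enrichments of variants in select over non-select samples. A cutoff of 10 counts per million in non-select applied, and values were rescaled (nonsense median 0, synonymous median 1) and averaged over biological replicates.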

Variant	AIRE transcriptional activation functional score
A482K	1.11 ± 0.17
A482Y	1.42 ± 0.1
H30P	-0.0919 ± 0.43
A21S	0.0464 ± 0.33
E353V	1.15 ± 0.089
E353I	1.13 ± 0.076
S195V	0.475 ± 0.15
S195A	1.31 ± 0.2
Q346P	1.12 ± 0.27
Q346Y	0.906 ± 0.29
Q346H	1.3 ± 0.042
V479R	0.978 ± 0.11
D515C	0.503 ± 0.096
P280M	1.23 ± 0.074
G91S	1.19 ± 1
G91W	1.54 ± 0.096
A429P	0.614 ± 0.34
Q108S	0.618 ± 0.61
L285Y	0.979 ± 0.08
P497N	1.05 ± 0.14
P497G	1.29 ± 0.38
P497M	1.19 ± 0.15
A73V	1.1 ± 0.32
L93Y	-0.417 ± 0.15

Variant	AIRE transcriptional activation functional score
L93P	0.0133 ± 0.58
F100T	-2.46 ± 0.24
R149N	0.726 ± 0.25
A450D	1.48 ± 0.055
A450S	0.883 ± 0.2
Y231V	0.771 ± 0.16
C55W	-0.244 ± 0.25
C457D	0.0222 ± 0.03
Q275R	1.03 ± 0.15
G208A	0.173 ± 0.2
C223F	0.324 ± 0.39
S412W	1.72 ± 0.022
S412A	1.09 ± 0.11
S107V	1 ± 0.57
S107E	0.777 ± 0.38
G228P	0.904 ± 0.33
G228H	-2 ± 0.29
P331H	0.817 ± 0.22
P331Y	1.08 ± 0.19
L409F	0.907 ± 0.093
E237L	1.16 ± 0.34
S234T	0.61 ± 0.63
P481R	0.956 ± 0.17
L370V	1.03 ± 0.26

Variant	AIRE transcriptional activation functional score
A134D	0.263 ± 0.28
A532D	0.194 ± 0.2
D439G	0.919 ± 0.15
S372F	1.02 ± 0.32
G440W	0.996 ± 0.03
F77W	-0.255 ± 0.2
P143G	0.958 ± 0.37
I18G	0.378 ± 0.28
D502K	0.812 ± 0.12
R79V	0.88 ± 0.41
C446T	-0.0482 ± 0.24
R328I	1.17 ± 0.46
R328E	1.06 ± 0.071
E136L	0.669 ± 0.26
S491M	1.31 ± 0.12
D312W	0.939 ± 0.08
V436G	0.916 ± 0.37
A6N	-0.00395 ± 0.93
A6W	0.676 ± 0.14
D238I	1.27 ± 0.18
R127C	0.833 ± 0.084
K243W	1.3 ± 0.024
L13W	0.425 ± 0.079
I330R	1.07 ± 0.37

Variant	AIRE transcriptional activation functional score
G251A	0.845 ± 0.12
H35A	0.00595 ± 0.49
P398T	1.21 ± 0.21
P398D	0.585 ± 0.029
P398S	0.979 ± 0.31
L62R	-0.00966 ± 0.95
Y394D	0.711 ± 0.27
S196F	0.117 ± 0.21
S196Y	0.776 ± 0.11
S196A	0.621 ± 0.19
A31Y	1.22 ± 0.37
A31N	-0.416 ± 0.14
A31R	-0.0467 ± 0.41
A31G	0.0886 ± 0.44
A31T	-0.678 ± 1.2
D41E	1.17 ± 0.67
D41F	0.468 ± 0.092
D41I	-1.3 ± 0.24
D41C	1.39 ± 0.13
N427F	1.42 ± 0.17
N427Y	1.47 ± 0.04
D514E	0.931 ± 0.14
V301I	0.84 ± 0.24
S474V	0.167 ± 0.17

Variant	AIRE transcriptional activation functional score
A121S	1.28 ± 0.72
A540S	0.988 ± 0.28
L7P	0.0964 ± 0.66
A500N	0.646 ± 0.076
P400C	0.972 ± 0.39
P400R	1.16 ± 0.18
F236S	0.712 ± 0.16
W335L	0.997 ± 0.24
W335K	1.12 ± 0.3
L418F	1.42 ± 0.26
C434V	0.211 ± 0.13
C434L	0.207 ± 0.089
A432S	0.578 ± 0.26
P492S	1.03 ± 0.19
P492W	0.687 ± 0.21
A142Q	-0.0872 ± 0.33
A61V	0.328 ± 0.53
A373G	0.987 ± 0.39
S135R	0.761 ± 0.25
L128T	1.62 ± 0.54
K133P	0.469 ± 0.58
K133F	-0.0481 ± 0.26
G387I	1.59 ± 0.069
Q225K	1.23 ± 0.028

Variant	AIRE transcriptional activation functional score
Q225S	0.993 ± 0.35
L308T	0.853 ± 0.17
C302R	0.411 ± 0.21
C302D	0.537 ± 0.1
E376F	0.443 ± 0.22
G374W	1.65 ± 0.042
K50H	0.46 ± 0.27
K50Y	-0.654 ± 0.44
R113G	0.801 ± 0.29
H319G	1.28 ± 0.13
A186N	0.421 ± 0.2
K501C	0.625 ± 0.06
C437Y	0.215 ± 0.15
C437W	0.0698 ± 0.029
N86H	-0.275 ± 0.44
N86A	-0.248 ± 0.42
H448I	0.59 ± 0.049
P129W	-0.183 ± 0.087
P490F	0.986 ± 0.48
P166S	0.939 ± 0.27
G498W	1.45 ± 0.051
V420M	1.43 ± 0.14
G150N	0.149 ± 0.088
A489D	1.17 ± 0.2

Variant	AIRE transcriptional activation functional score
P407A	0.943 ± 0.23
L529R	0.121 ± 0.14
L529C	0.595 ± 0.044
L67D	0.698 ± 0.24
T447C	0.201 ± 0.3
L392G	0.912 ± 0.32
P466D	0.553 ± 0.043
P466F	0.774 ± 0.31
I528T	0.117 ± 0.3
I528K	-0.0103 ± 0.19
I528M	0.456 ± 0.027
R513P	0.55 ± 0.85
E485Q	0.397 ± 0.44
E485W	1.08 ± 0.049
P115A	0.798 ± 0.66
V118P	1.47 ± 0.62
A493V	1.1 ± 0.26
K253C	1.39 ± 0.044
T364A	0.985 ± 0.21
T364M	1.64 ± 0.12
P416D	-0.251 ± 0.11
G431M	0.776 ± 0.13
L414Y	-0.109 ± 0.22
